Assays:
N52.E6 cells = assay: Generation of virus stocks with IPTG in the media; type: cell-based, human; conditions: 2 mM IPTG in the media
Text: Towards the development of an all-inclusive helper virus whose packaging is specifically and selectively repressed while providing early and late gene products for complementation in trans of a gutted virus, the following recombinant Ad was constructed (FIG. 14). Ad-AV-VII(lac)^2-LacWT contains the AV-VII(lac)^2 minimal domain in place of the WT packaging domain as well as a CMV-M45-LacWT expression cassette. Ad-AV-VII^2-LacWT serves as a control, and contains the AV-VII^2 minimal domain without Lac binding sites, as well as the CMV-M45-LacWT expression cassette. These viruses were plaque purified and grown in N52.E6 cells. N52.E6 cells are a human amniocyte cell line transformed with Ad E1A and E1B sequences (Schiedner, Hertel et al. 2000). These cells contain only Ad nts 505-3522 and share no homologous sequence with the viral DNA constructs, thus eliminating the possibility of the generation of replication competent adenovirus (RCA) by recombination with Ad sequences present in other E1-containing cell lines. To generate stocks of these viruses, they were grown in N52.E6 cells with IPTG in the media at a concentration of 2 mM. IPTG is required in the media, as these viruses express Lac repressor protein that is able to bind to lac binding sites within the packaging domain and suppress packaging.

[1] = tested on: lac binding site monomer probe; assay: Gel mobility shift assay, lac binding site monomer probe; conditions: whole cell extract of transfected 293 cells
[2] = tested on: AV-VII(lac)^2 dimer probe; assay: Gel mobility shift assay, AV-VII(lac)^2 dimer probe; conditions: whole cell extract of transfected 293 cells

Molecule: CC(C)S[C@@H]1O[C@H](CO)[C@H](O)[C@H](O)[C@H]1O [IPTG, isopropyl-β-D-thiogalactopyranoside]
- growth of Lac repressor expressing viruses (N52.E6 cells): allowed for growth of these viruses

B1: LacWT: M45 epitope-tagged wild type E. coli Lac repressor protein in whole cell extract of transfected 293 cells (protein)
chain: MKPVTLYDVAEYAGVSYQTVSRVVNQASHVSAKTREKVEAAMAELNYIPNRVAQQLAGKQSLLIGVATSSLALHAPSQIVAAIKSRADQLGASVVVSMVERSGVEACKAAVHNLLAQRVSGLIINYPLDDQDAIAVEAACTNVPALFLDVSDQTPINSIIFSHEDGTRLGVEHLVALGHQQIALLAGPLSSVSARLRLAGWHKYLTRNQIQPIAEREGDWSAMSGFQQTMQMLNEGIVPTAMLVANDQMALGAMRAITESGLRVGADISVVGYDDTEDSSCYIPPLTTIKQDFRLLGQTSVDRLLQLSQGQAVKGNQLLPVSLVKRKTTLAPNTQTASPRALADSLMQLARQVSRLESGQ
modifications: left off: small tags and cut ends
- Lac site monomer binding activity [1]: detected
- AV-VII(lac) dimer binding activity [2]: detected
